This data set has as its system Escherichia coli TOP10. As to the kind of experiment: shrunken log2 fold change of peptide-encoding DNA abundance (4.5 h post-induction vs induction); higher = less antimicrobial activity (less host growth inhibition). The note with it: time post-induction: 4.5 h; library: site-saturation at positions 5, 18, 19, 20.
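Further: peptides expressed intracellularly from a pBAD plasmid library in pooled LB shake-flask culture, induced with 0.3% L-arabinose, DNA abundance read by NGS, three biological replicates, DESeq2 with apeglm shrinkage.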

With RRIRIRPPRLPRPRPRPEITPRP, the “shrunken log2 fold change” value was -0.461. Turning to RRIRCRPPRLPRPRPRPHHLPRP, the “shrunken log2 fold change” value is -0.808. With RRIRMRPPRLPRPRPRPWCDPRP the figure was 0.274; with RRIRYRPPRLPRPRPRPTNRPRP, -0.363. The value for RRIRERPPRLPRPRPRPLNNPRP was -0.705; that for RRIRFRPPRLPRPRPRPAYAPRP was 0.113; that for RRIRHRPPRLPRPRPRPVEEPRP was 0.00298. With RRIRWRPPRLPRPRPRPFIHPRP the figure was -0.286. On to RRIRVRPPRLPRPRPRPFDVPRP, for which the “shrunken log2 fold change” value is -0.0208. With RRIRPRPPRLPRPRPRPYCGPRP the figure was -0.148; with RRIRDRPPRLPRPRPRPHWTPRP, -0.179. With RRIRVRPPRLPRPRPRPGFEPRP the figure was 0.554; with RRIRQRPPRLPRPRPRPQHYPRP, -0.447. With RRIRDRPPRLPRPRPRPYWVPRP the figure was -0.129; with RRIRHRPPRLPRPRPRPPDHPRP, 0.265; with RRIRQRPPRLPRPRPRPSDMPRP, 0.0447. With RRIRERPPRLPRPRPRPGSEPRP, the “shrunken log2 fold change” value was -0.0924.

With RRIRLRPPRLPRPRPRPMAHPRP, the “shrunken log2 fold change” value is -0.944.

RRIRWRPPRLPRPRPRPTWNPRP: the “shrunken log2 fold change” value came out at 0.306.

On to RRIRNRPPRLPRPRPRPLFCPRP, for which the “shrunken log2 fold change” value is -0.495.

Turning to RRIRVRPPRLPRPRPRPANDPRP, the “shrunken log2 fold change” value stood at 0.0219. With RRIRPRPPRLPRPRPRPDGMPRP the figure was -0.0319; with RRIRLRPPRLPRPRPRPLIKPRP, -0.273; with RRIRLRPPRLPRPRPRPQNIPRP, -0.512. Take RRIRNRPPRLPRPRPRPYATPRP: the “shrunken log2 fold change” value is -0.145. Turning to RRIRVRPPRLPRPRPRPCIRPRP, the “shrunken log2 fold change” value is -0.198.

For RRIRLRPPRLPRPRPRPWIVPRP, the “shrunken log2 fold change” value is -0.0907.

RRIRLRPPRLPRPRPRPISGPRP: the “shrunken log2 fold change” value was -0.462. The value for RRIRKRPPRLPRPRPRPLVIPRP was -0.0927.

In the case of RRIRIRPPRLPRPRPRPPPCPRP, the “shrunken log2 fold change” value was found to be 0.0616. The value for RRIRERPPRLPRPRPRPIPNPRP was -0.135; that for RRIRTRPPRLPRPRPRPNHFPRP was -0.316; that for RRIRHRPPRLPRPRPRPCVTPRP was -0.609. Turning to RRIRGRPPRLPRPRPRPWMNPRP, the “shrunken log2 fold change” value turned out to be 0.106. The value for RRIRDRPPRLPRPRPRPVVDPRP was 0.104; that for RRIRKRPPRLPRPRPRPFCMPRP was -0.115.

RRIRARPPRLPRPRPRPHNMPRP: the “shrunken log2 fold change” value was -0.446. With RRIRLRPPRLPRPRPRPTNTPRP the figure was -0.375; with RRIRRRPPRLPRPRPRPWMMPRP, 0.0519; with RRIRPRPPRLPRPRPRPFNKPRP, -0.468.

Regarding RRIRSRPPRLPRPRPRPDHWPRP, the “shrunken log2 fold change” value is -0.0678. The value for RRIRHRPPRLPRPRPRPNYCPRP was -0.0948. As to RRIRCRPPRLPRPRPRPRNGPRP, the “shrunken log2 fold change” value is 0.124. The value for RRIRKRPPRLPRPRPRPDDDPRP was 3.89; that for RRIRKRPPRLPRPRPRPVAWPRP was 0.315; that for RRIRNRPPRLPRPRPRPINPPRP was -0.796. The value for RRIRYRPPRLPRPRPRPGHFPRP was -0.0316; that for RRIRGRPPRLPRPRPRPCQYPRP was 0.0685. The value for RRIRYRPPRLPRPRPRPFRCPRP was 0.0856; that for RRIRFRPPRLPRPRPRPVHKPRP was -0.142; that for RRIRPRPPRLPRPRPRPPMVPRP was 0.0188.

Turning to RRIRLRPPRLPRPRPRPDRNPRP, the “shrunken log2 fold change” value turned out to be 0.0573. RRIRKRPPRLPRPRPRPKWDPRP: the “shrunken log2 fold change” value is 0.361. The value for RRIRPRPPRLPRPRPRPHWLPRP was -0.0232; that for RRIRFRPPRLPRPRPRPKWVPRP was -0.193. The value for RRIRERPPRLPRPRPRPKLRPRP was -0.0804.

Take RRIRGRPPRLPRPRPRPQIFPRP: the “shrunken log2 fold change” value is -0.0563. The value for RRIRWRPPRLPRPRPRPICMPRP was -0.242; that for RRIRTRPPRLPRPRPRPVYNPRP was -0.239. Regarding RRIRFRPPRLPRPRPRPFTIPRP, the “shrunken log2 fold change” value is -0.313. With RRIRCRPPRLPRPRPRPSCVPRP the figure was -0.0959; with RRIRHRPPRLPRPRPRPEFWPRP, 0.42; with RRIRHRPPRLPRPRPRPHVQPRP, -0.128. Turning to RRIRARPPRLPRPRPRPKPHPRP, the “shrunken log2 fold change” value is 0.579. As to RRIRCRPPRLPRPRPRPYWGPRP, the “shrunken log2 fold change” value is -0.427.

In the case of RRIRERPPRLPRPRPRPHMDPRP, the “shrunken log2 fold change” value was -1.21. The value for RRIRPRPPRLPRPRPRPEVWPRP was 0.5.

As for RRIRGRPPRLPRPRPRPMASPRP, the “shrunken log2 fold change” value is 0.176. With RRIRLRPPRLPRPRPRPMDCPRP the figure was -0.0117; with RRIRIRPPRLPRPRPRPTGWPRP, 0.19; with RRIRQRPPRLPRPRPRPTKIPRP, -0.13. The value for RRIRWRPPRLPRPRPRPPDCPRP was -0.259. The value for RRIRQRPPRLPRPRPRPDIAPRP was 0.111.

RRIRKRPPRLPRPRPRPMPAPRP: the “shrunken log2 fold change” value came out at 0.15.

On to RRIRQRPPRLPRPRPRPTCLPRP, for which the “shrunken log2 fold change” value is -0.108.

Consider RRIRYRPPRLPRPRPRPINCPRP, for which the “shrunken log2 fold change” value is -0.122.

On to RRIRERPPRLPRPRPRPNYDPRP, for which the “shrunken log2 fold change” value was -0.873. The value for RRIRSRPPRLPRPRPRPRPTPRP was 0.391. The value for RRIRDRPPRLPRPRPRPHIFPRP was -0.361; that for RRIRIRPPRLPRPRPRPDHPPRP was -0.266.

For RRIRLRPPRLPRPRPRPHVFPRP, the “shrunken log2 fold change” value was -0.0592.

Regarding RRIRYRPPRLPRPRPRPQSSPRP, the “shrunken log2 fold change” value was -0.687.

Take RRIRQRPPRLPRPRPRPHCLPRP: the “shrunken log2 fold change” value is 0.0735. With RRIRFRPPRLPRPRPRPISSPRP the figure was -0.0616; with RRIRRRPPRLPRPRPRPMARPRP, 0.0728.

For RRIRQRPPRLPRPRPRPYLSPRP, the “shrunken log2 fold change” value was 0.00493. Consider RRIRIRPPRLPRPRPRPFWLPRP, for which the “shrunken log2 fold change” value is 0.183. In the case of RRIRKRPPRLPRPRPRPHKKPRP, the “shrunken log2 fold change” value was -0.127.

RRIRCRPPRLPRPRPRPILCPRP: the “shrunken log2 fold change” value stood at 2.87. With RRIRARPPRLPRPRPRPIMPPRP the figure was 0.167.

On to RRIRCRPPRLPRPRPRPNVQPRP, for which the “shrunken log2 fold change” value was -0.0319. Consider RRIRERPPRLPRPRPRPYEDPRP, for which the “shrunken log2 fold change” value is -0.0116.

For RRIRTRPPRLPRPRPRPRFWPRP, the “shrunken log2 fold change” value was found to be 0.0622. With RRIRERPPRLPRPRPRPKVDPRP the figure was 0.0519; with RRIRLRPPRLPRPRPRPRQIPRP, 0.211. In the case of RRIRVRPPRLPRPRPRPLSAPRP, the “shrunken log2 fold change” value is -0.0281.

In the case of RRIRNRPPRLPRPRPRPKFNPRP, the “shrunken log2 fold change” value is -0.569. With RRIRTRPPRLPRPRPRPSVNPRP the figure was -1.91; with RRIRCRPPRLPRPRPRPQKFPRP, -0.638; with RRIRQRPPRLPRPRPRPCSSPRP, -0.0115.

Turning to RRIRVRPPRLPRPRPRPWMCPRP, the “shrunken log2 fold change” value is -0.522. The value for RRIRYRPPRLPRPRPRPCRYPRP was -0.212. Turning to RRIRARPPRLPRPRPRPLNSPRP, the “shrunken log2 fold change” value was 0.0404.

As to RRIRQRPPRLPRPRPRPTKHPRP, the “shrunken log2 fold change” value is -0.167. With RRIRKRPPRLPRPRPRPSFTPRP, the “shrunken log2 fold change” value was -0.272. With RRIRIRPPRLPRPRPRPNTKPRP the figure was -0.202; with RRIRERPPRLPRPRPRPTPKPRP, 0.525; with RRIRTRPPRLPRPRPRPYKNPRP, -0.937. Regarding RRIRRRPPRLPRPRPRPDVLPRP, the “shrunken log2 fold change” value is 0.0203. With RRIRCRPPRLPRPRPRPREMPRP the figure was 0.245; with RRIRGRPPRLPRPRPRPVFPPRP, 0.36; with RRIRMRPPRLPRPRPRPCWGPRP, -0.078.

As for RRIRNRPPRLPRPRPRPFHEPRP, the “shrunken log2 fold change” value was -0.00822. With RRIRLRPPRLPRPRPRPYKWPRP the figure was -0.0271. With RRIRKRPPRLPRPRPRPEHSPRP the figure was 0.00628. With RRIRNRPPRLPRPRPRPEQRPRP the figure was 0.00383; with RRIRPRPPRLPRPRPRPETVPRP, 0.207; with RRIRIRPPRLPRPRPRPQMQPRP, -0.325. As to RRIRHRPPRLPRPRPRPRSGPRP, the “shrunken log2 fold change” value was -0.0415. With RRIRHRPPRLPRPRPRPPCGPRP the figure was 0.176. As to RRIRFRPPRLPRPRPRPCMWPRP, the “shrunken log2 fold change” value is -0.258. With RRIRKRPPRLPRPRPRPMLRPRP the figure was 0.308. With RRIRARPPRLPRPRPRPNICPRP the figure was -0.0618; with RRIRARPPRLPRPRPRPFCKPRP, -0.25; with RRIRSRPPRLPRPRPRPTSNPRP, 0.133.

The record behind these values is the supplement of paper PMC9112550, “Optimization of the antimicrobial peptide Bac7 by deep mutational scanning” (BMC Biology, 2022).
